Experimental data as given in paper doi:10.1101/2024.08.14.606984 (bioRxiv, 2024).

Target: the molecule itself
Experiment: SEC

B1: GCN2^K619R, kinase dead mutant of human General Control Non-derepressible 2 (GCN2) (enzyme, UniProt Q9P2K8 1-1649, looked up)
chain: MAGGRGAPGRGRDEPPESYPQRQDHELQALEAIYGADFQDLRPDACGPVKEPPEINLVLYPQGLTGEEVYVKVDLRVKCPPTYPDVVPEIELKNAKGLSNESVNLLKSRLEELAKKHCGEVMIFELAYHVQSFLSEHNKPPPKSFHEEMLERRAQEEQQRLLEAKRKEEQEQREILHEIQRRKEEIKEEKKRKEMAKQERLEIASLSNQDHTSKKDPGGHRTAAILHGGSPDFVGNGKHRANSSGRSRRERQYSVCNSEDSPGSCEILYFNMGSPDQLMVHKGKCIGSDEQLGKLVYNALETATGGFVLLYEWVLQWQKKMGPFLTSQEKEKIDKCKKQIQGTETEFNSLVKLSHPNVVRYLAMNLKEQDDSIVVDILVEHISGVSLAAHLSHSGPIPVHQLRRYTAQLLSGLDYLHSNSVVHKVLSASNVLVDAEGTVKITDYSISKRLADICKEDVFEQTRVRFSDNALPYKTGKKGDVWRLGLLLLSLSQGQECGEYPVTIPSDLPADFQDFLKKCVCLDDKERWSPQQLLKHSFINPQPKMPLVEQSPEDSEGQDYVETVIPSNRLPSAAFFSETQRQFSRYFIEFEELQLLGKGAFGAVIKVQNKLDGCCYAVRRIPINPASRQFRRIKGEVTLLSRLHHENIVRYYNAWIERHERPAGPGTPPPDSGPLAKDDRAARGQPASDTDGLDSVEAAAPPPILSSSVEWSTSGERSASARFPATGPGSSDDEDDDEDEHGGVFSQSFLPASDSESDIIFDNEDENSKSQNQDEDCNEKNGCHESEPSVTTEAVHYLYIQMEYCEKSTLRDTIDQGLYRDTVRLWRLFREILDGLAYIHEKGMIHRDLKPVNIFLDSDDHVKIGDFGLATDHLAFSADSKQDDQTGDLIKSDPSGHLTGMVGTALYVSPEVQGSTKSAYNQKVDLFSLGIIFFEMSYHPMVTASERIFVLNQLRDPTSPKFPEDFDDGEHAKQKSVISWLLNHDPAKRPTATELLKSELLPPPQMEESELHEVLHHTLTNVDGKAYRTMMAQIFSQRISPAIDYTYDSDILKGNFSIRTAKMQQHVCETIIRIFKRHGAVQLCTPLLLPRNRQIYEHNEAALFMDHSGMLVMLPFDLRIPFARYVARNNILNLKRYCIERVFRPRKLDRFHPKELLECAFDIVTSTTNSFLPTAEIIYTIYEIIQEFPALQERNYSIYLNHTMLLKAILLHCGIPEDKLSQVYIILYDAVTEKLTRREVEAKFCNLSLSSNSLCRLYKFIEQKGDLQDLMPTINSLIKQKTGIAQLVKYGLKDLEEVVGLLKKLGIKLQVLINLGLVYKVQQHNGIIFQFVAFIKRRQRAVPEILAAGGRYDLLIPQFRGPQALGPVPTAIGVSIAIDKISAAVLNMEESVTISSCDLLVVSVGQMSMSRAINLTQKLWTAGITAEIMYDWSQSQEELQEYCRHHEITYVALVSDKEGSHVKVKSFEKERQTEKRVLETELVDHVLQKLRTKVTDERNGREASDNLAVQNLKGSFSNASGLFEIHGATVVPIVSVLAPEKLSASTRRRYETQVQTRLQTSLANLHQKSSEIEILAVDLPKETILQFLSLEWDADEQAFNTTVKQLLSRLPKQRYLKLVCDEIYNIKVEKKVSVLFLYSYRDDYYRILF
stoichiometry N: 2
